# Assay results published in paper PMC11731035.
# Molecular target: plastidic 70S ribosomes of Arabidopsis thaliana (Arabidopsis thaliana (endogenous))
# Assay: co-sedimentation; lysate of Col-0 plants grown at 21 °C layered on a 25% sucrose cushion, 173,292 x g for 20 min; immunoblot of total, supernatant and ribosomal pellet, quantified as R/(R+S); standard ribosome buffer (Mg2+), also with 800 mM KCl (high salt) or 1 mM puromycin
row,Substance,fraction co-sedimented with ribosomes [%]
1,"Trigger factor 2 (Tig2), Arabidopsis thaliana chloroplast (natural protein)",25
2,"Trigger factor 1 (Tig1), Arabidopsis thaliana chloroplast (natural protein)",8
